Key:
[1] = target: mutant His-p32 (K89A/K93A) (mouse) (UniProt O35658); experiment: SEC
[2] = target: wild-type His-p32 (mouse) (UniProt O35658); experiment: SEC
p32 (gC1qR) wild-type [3] = target: T1, p32 (gC1qR) wild-type (Mus musculus, UniProt Q8R5L1 72-279); experiment: EMSA
T1 sequence: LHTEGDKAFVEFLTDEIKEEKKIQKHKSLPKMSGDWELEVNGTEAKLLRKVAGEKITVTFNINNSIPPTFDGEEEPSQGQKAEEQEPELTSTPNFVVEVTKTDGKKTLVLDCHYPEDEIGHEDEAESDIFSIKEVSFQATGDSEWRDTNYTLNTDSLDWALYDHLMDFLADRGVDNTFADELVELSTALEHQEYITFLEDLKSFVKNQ

p32 (gC1qR) wild-type [4] = target: T1, p32 (gC1qR) wild-type; experiment: competition
p32 (gC1qR) wild-type [5] = target: T1, p32 (gC1qR) wild-type; experiment: competition; remark: listed apart in the source
p32 (gC1qR) wild-type [6] = target: T1, p32 (gC1qR) wild-type; experiment: EMSA; remark: listed apart in the source

mutant His-p32 (K89A/K93A) (from UniProt O35658 71-278) (natural protein)
stoichiometry N [1]: 3

wild-type His-p32 (from UniProt O35658 71-278) (natural protein)
stoichiometry N [2]: 3

B1: 22-mer poly(A) RNA (ssRNA)
RNA: AAAAAAAAAAAAAAAAAAAAAA
Kd (p32 (gC1qR) wild-type [3]): ~6 µM

B2: 22-mer poly(A) DNA (ssDNA)
DNA: AAAAAAAAAAAAAAAAAAAAAA
binding result (p32 (gC1qR) wild-type [4]): no binding

B3: 40-mer RNA (random) (ssRNA)
RNA: GGGAGAAAAACAAAACAAAACAAAACUAGCACCGUAAAGC
binding result (p32 (gC1qR) wild-type [5]): binds

B4: 14-mer RNA (random) (ssRNA)
RNA: GUUUACGGUGCUA
binding result (p32 (gC1qR) wild-type [6]): binds

Source: publication PMC3479211
